Test results reported in article PMC9482650, “Quantitative fragmentomics allow affinity mapping of interactomes” (Nature Communications, 2022).

Experiments:
Assay in all cases: holdup assay
Parameters in all cases: key: below the threshold = too weak to quantify, mostly under pKd 3.1 to 4
[1] = molecular target: PTPN3, P26045
[2] = molecular target: GOPC, Q9HD26
[3] = molecular target: T1, MPP2, Q14168
T1 sequence (Q14168 180-250, limits assumed, looked up): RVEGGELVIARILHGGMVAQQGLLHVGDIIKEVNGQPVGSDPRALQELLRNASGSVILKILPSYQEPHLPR

[4] = molecular target: MAGI2_2, Q86UL8
[5] = molecular target: CASK, O14936
[6] = molecular target: T2, MPP6, Q9NZW5
T2 sequence (Q9NZW5 125-219, limits assumed, looked up): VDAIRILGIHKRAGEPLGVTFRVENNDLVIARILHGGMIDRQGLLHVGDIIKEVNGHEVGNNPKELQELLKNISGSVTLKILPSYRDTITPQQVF

[7] = molecular target: Inadl_8, Q8NI35
[8] = molecular target: DLG1_1, Q12959
[9] = molecular target: T3, PTPN13_1, Q12923
T3 sequence (Q12923 1088-1188, limits assumed, looked up): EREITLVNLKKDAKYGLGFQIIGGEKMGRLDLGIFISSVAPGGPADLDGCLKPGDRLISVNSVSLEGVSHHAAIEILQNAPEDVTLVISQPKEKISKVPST

[10] = molecular target: T4, SNTA1, Q13424
T4 sequence (Q13424 82-180, limits assumed, looked up): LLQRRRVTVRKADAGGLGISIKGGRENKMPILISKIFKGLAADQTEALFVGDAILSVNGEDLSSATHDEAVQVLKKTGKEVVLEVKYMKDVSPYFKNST

[11] = molecular target: PICK1, Q9NRD5
[12] = molecular target: T5, LIN7C, Q9NUP9
T5 sequence (Q9NUP9 88-185, limits assumed, looked up): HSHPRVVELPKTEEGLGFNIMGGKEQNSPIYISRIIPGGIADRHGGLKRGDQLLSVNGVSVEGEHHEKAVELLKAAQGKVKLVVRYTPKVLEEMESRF

[13] = molecular target: FRMPD2_3, Q68DX3
[14] = molecular target: DLG2_2, Q15700
[15] = molecular target: GORASP1, Q9BQQ3
[16] = molecular target: T6, APBA2_1, Q99767
T6 sequence (Q99767 563-664, limits assumed, looked up): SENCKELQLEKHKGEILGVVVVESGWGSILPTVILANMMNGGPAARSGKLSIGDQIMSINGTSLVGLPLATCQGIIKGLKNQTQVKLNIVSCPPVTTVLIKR

[17] = molecular target: MAGI1_2, Q96QZ7
[18] = molecular target: Inadl_5, Q8NI35
[19] = molecular target: T7, DLG3_1, Q92796
T7 sequence (Q92796 125-227, limits assumed, looked up): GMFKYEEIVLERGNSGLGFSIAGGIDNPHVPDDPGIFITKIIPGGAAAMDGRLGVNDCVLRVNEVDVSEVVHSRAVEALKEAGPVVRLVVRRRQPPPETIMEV

[20] = molecular target: Inadl_9, Q8NI35
[21] = molecular target: TJP1_3, Q07157
[22] = molecular target: T8, DFNB31_1, Q9P202
T8 sequence (Q9P202 135-233, limits assumed, looked up): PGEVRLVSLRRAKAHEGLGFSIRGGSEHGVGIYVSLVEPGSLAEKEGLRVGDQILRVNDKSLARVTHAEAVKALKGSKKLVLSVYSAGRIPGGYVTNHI

[23] = molecular target: NOS1, P29475
[24] = molecular target: LDB3, O75112
[25] = molecular target: T9, LNX2_2, Q8N448
T9 sequence (Q8N448 334-432, limits assumed, looked up): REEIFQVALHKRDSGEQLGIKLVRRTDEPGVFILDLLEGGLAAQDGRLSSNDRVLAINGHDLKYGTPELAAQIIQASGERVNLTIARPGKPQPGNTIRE

[26] = molecular target: HTRA2, O43464
[27] = molecular target: MAGI2_6, Q86UL8
[28] = molecular target: MAST1, Q9Y2H9
[29] = molecular target: T10, DFNB31_3, Q9P202
T10 sequence (Q9P202 811-907, limits assumed, looked up): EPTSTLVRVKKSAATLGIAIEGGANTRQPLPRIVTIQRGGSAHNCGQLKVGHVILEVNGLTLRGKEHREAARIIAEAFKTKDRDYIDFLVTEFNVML

[30] = plain residues with an end cap or a label only (N-terminal biotin on a linker: ado-ado)
[31] = plain residues with an end cap or a label only (N-terminal biotin on a linker: ahx)
[32] = plain residues with an end cap or a label only (N-terminal biotin on a linker: ttds)

Sequence of HTRA2, O43464 (O43464 355-458): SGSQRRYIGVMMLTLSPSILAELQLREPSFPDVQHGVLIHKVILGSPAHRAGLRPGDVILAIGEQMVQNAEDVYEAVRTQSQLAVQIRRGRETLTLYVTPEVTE
Sequence of TJP1_3, Q07157 (Q07157 416-512): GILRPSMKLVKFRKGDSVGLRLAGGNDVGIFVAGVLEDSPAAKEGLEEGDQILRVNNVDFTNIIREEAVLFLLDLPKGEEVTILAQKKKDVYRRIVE
Sequence of MAGI2_6, Q86UL8 (Q86UL8 1141-1229): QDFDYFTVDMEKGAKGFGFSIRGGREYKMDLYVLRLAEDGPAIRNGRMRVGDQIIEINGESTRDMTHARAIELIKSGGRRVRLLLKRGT
Sequence of NOS1, P29475 (P29475 9-101): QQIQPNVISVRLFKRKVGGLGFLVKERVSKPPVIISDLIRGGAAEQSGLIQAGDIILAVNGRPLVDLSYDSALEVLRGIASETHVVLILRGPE
Sequence of MAST1, Q9Y2H9 (Q9Y2H9 962-1065): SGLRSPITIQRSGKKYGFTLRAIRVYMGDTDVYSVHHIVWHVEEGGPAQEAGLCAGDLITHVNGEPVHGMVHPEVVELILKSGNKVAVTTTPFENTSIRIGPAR
Sequence of CASK, O14936 (O14936 487-570): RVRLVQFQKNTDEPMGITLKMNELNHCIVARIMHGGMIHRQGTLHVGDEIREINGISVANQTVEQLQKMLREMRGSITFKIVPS
Sequence of Inadl_9, Q8NI35 (Q8NI35 1530-1615): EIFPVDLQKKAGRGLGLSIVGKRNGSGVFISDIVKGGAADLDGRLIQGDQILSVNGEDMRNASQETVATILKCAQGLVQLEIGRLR
Sequence of MAGI2_2, Q86UL8 (Q86UL8 410-522): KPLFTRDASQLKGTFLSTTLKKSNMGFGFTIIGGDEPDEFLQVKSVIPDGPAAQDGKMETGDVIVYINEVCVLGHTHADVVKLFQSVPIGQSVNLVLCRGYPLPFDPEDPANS
Sequence of MAGI1_2, Q96QZ7 (Q96QZ7 456-580): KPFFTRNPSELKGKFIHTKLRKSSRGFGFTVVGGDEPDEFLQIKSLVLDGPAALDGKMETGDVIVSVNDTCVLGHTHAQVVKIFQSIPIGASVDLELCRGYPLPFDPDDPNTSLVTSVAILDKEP
Sequence of PICK1, Q9NRD5 (Q9NRD5 17-115): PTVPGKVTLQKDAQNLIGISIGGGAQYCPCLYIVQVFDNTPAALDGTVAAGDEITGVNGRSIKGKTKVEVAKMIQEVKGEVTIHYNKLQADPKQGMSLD
Sequence of Inadl_5, Q8NI35 (Q8NI35 673-780): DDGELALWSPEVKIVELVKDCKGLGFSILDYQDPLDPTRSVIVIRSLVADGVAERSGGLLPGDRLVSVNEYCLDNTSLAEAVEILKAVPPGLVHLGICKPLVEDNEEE
Sequence of GORASP1, Q9BQQ3 (Q9BQQ3 1-208): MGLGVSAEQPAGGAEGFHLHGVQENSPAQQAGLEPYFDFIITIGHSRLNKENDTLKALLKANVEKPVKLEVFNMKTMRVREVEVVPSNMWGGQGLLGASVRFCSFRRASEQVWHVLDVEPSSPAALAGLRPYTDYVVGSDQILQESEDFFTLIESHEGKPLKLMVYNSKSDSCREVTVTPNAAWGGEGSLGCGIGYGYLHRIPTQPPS
Sequence of DLG2_2, Q15700 (Q15700 189-283): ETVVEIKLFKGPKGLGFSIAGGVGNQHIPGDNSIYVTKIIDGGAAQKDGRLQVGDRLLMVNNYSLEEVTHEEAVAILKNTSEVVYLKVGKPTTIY
Sequence of LDB3, O75112 (O75112 1-94): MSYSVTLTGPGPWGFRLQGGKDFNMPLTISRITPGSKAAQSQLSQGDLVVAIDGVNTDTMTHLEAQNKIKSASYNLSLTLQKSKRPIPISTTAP
Sequence of PTPN3, P26045 (P26045 505-587): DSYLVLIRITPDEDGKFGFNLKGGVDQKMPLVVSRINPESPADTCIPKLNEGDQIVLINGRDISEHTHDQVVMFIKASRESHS
Sequence of FRMPD2_3, Q68DX3 (Q68DX3 1073-1166): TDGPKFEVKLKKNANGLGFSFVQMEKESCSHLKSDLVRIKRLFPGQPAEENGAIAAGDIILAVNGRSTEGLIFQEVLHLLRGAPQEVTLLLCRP
Sequence of Inadl_8, Q8NI35 (Q8NI35 1425-1530): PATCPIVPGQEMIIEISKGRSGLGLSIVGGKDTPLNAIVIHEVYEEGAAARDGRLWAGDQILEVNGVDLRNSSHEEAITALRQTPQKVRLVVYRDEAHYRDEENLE

For EKPIDSETKM [SLC1A3, P43003], the pKd [1, 30] was 4.25, the pKd [2, 30] was “below the threshold” and the pKd [3, 30] was “below the threshold”. The pKd [4, 30] was “below the threshold”, the pKd [5, 30] was “below the threshold” and the pKd [6, 30] was “below the threshold”. For the same binder, the pKd [7, 30] was “below the threshold”, the pKd [8, 30] was “below the threshold” and the pKd [9, 30] was “below the threshold”. The pKd [10, 30] was “below the threshold”, the pKd [11, 30] was “below the threshold” and the pKd [12, 30] was “below the threshold”. The pKd [13, 30] was “below the threshold”, the pKd [14, 30] was “below the threshold” and the pKd [15, 30] was “below the threshold”. The pKd [16, 30] was “below the threshold”, the pKd [17, 30] was “below the threshold” and the pKd [18, 30] was “below the threshold”. For the same binder, the pKd [19, 30] was “below the threshold”, the pKd [20, 30] was “below the threshold” and the pKd [21, 30] was “below the threshold”. The pKd [22, 30] was 3.48, the pKd [23, 30] was “below the threshold” and the pKd [24, 30] was “below the threshold”. The pKd [25, 30] was “below the threshold”, the pKd [26, 30] was “below the threshold” and the pKd [27, 30] was “below the threshold”. For the same binder, the pKd [28, 30] was 4.67 and the pKd [29, 30] was “below the threshold”.

With KEYDDELTFF [USH1C, Q9Y6N9] the pKd [1, 31] was 3.71, the pKd [2, 31] was “below the threshold” and the pKd [3, 31] was “below the threshold”. The pKd [4, 31] was “below the threshold”, the pKd [5, 31] was “below the threshold” and the pKd [6, 31] was “below the threshold”. The pKd [7, 31] was “below the threshold”, the pKd [8, 31] was “below the threshold” and the pKd [9, 31] was “below the threshold”. For the same binder, the pKd [10, 31] was 3.49, the pKd [11, 31] was “below the threshold” and the pKd [12, 31] was “below the threshold”. For the same binder, the pKd [13, 31] was “below the threshold”, the pKd [14, 31] was “below the threshold” and the pKd [15, 31] was 3.56. The pKd [16, 31] was “below the threshold”, the pKd [17, 31] was “below the threshold” and the pKd [18, 31] was “below the threshold”. For the same binder, the pKd [19, 31] was “below the threshold”, the pKd [20, 31] was “below the threshold” and the pKd [21, 31] was “below the threshold”. The pKd [22, 31] was “below the threshold”, the pKd [23, 31] was “below the threshold” and the pKd [24, 31] was “below the threshold”. For the same binder, the pKd [25, 31] was “below the threshold”, the pKd [26, 31] was “below the threshold” and the pKd [27, 31] was “below the threshold”. It also gave a pKd [28, 31] of 4.52 and a pKd [29, 31] of 3.88.

In the case of PSRDRKETSI [RALBP1, Q15311], the pKd [1, 32] is reported as 4.75, the pKd [2, 32] is reported as 3.6 and the pKd [3, 32] is reported as “below the threshold”. The pKd [4, 32] was 4.03, the pKd [5, 32] was “below the threshold” and the pKd [6, 32] was “below the threshold”. The pKd [7, 32] was “below the threshold”, the pKd [8, 32] was 3.79 and the pKd [9, 32] was “below the threshold”. For the same binder, the pKd [10, 32] was 4.06, the pKd [11, 32] was “below the threshold” and the pKd [12, 32] was 3.9. For the same binder, the pKd [13, 32] was “below the threshold”, the pKd [14, 32] was 4.29 and the pKd [15, 32] was 3.38. The pKd [16, 32] was “below the threshold”, the pKd [17, 32] was 3.91 and the pKd [18, 32] was “below the threshold”. For the same binder, the pKd [19, 32] was 3.3, the pKd [20, 32] was “below the threshold” and the pKd [21, 32] was “below the threshold”. The pKd [22, 32] was 4.35, the pKd [23, 32] was 3.52 and the pKd [24, 32] was “below the threshold”. For the same binder, the pKd [25, 32] was “below the threshold”, the pKd [26, 32] was “below the threshold” and the pKd [27, 32] was “below the threshold”. The pKd [28, 32] was 4.56 and the pKd [29, 32] was “below the threshold”.

With VNENQKEYFF [CNTNAP4, Q9C0A0] the pKd [1, 31] was 4.55, the pKd [2, 31] was “below the threshold” and the pKd [3, 31] was “below the threshold”. For the same binder, the pKd [4, 31] was “below the threshold”, the pKd [5, 31] was 3.79 and the pKd [6, 31] was “below the threshold”. For the same binder, the pKd [7, 31] was “below the threshold”, the pKd [8, 31] was “below the threshold” and the pKd [9, 31] was “below the threshold”. For the same binder, the pKd [10, 31] was “below the threshold”, the pKd [11, 31] was “below the threshold” and the pKd [12, 31] was “below the threshold”. The pKd [13, 31] was “below the threshold”, the pKd [14, 31] was “below the threshold” and the pKd [15, 31] was “below the threshold”. For the same binder, the pKd [16, 31] was “below the threshold”, the pKd [17, 31] was “below the threshold” and the pKd [18, 31] was 3.61. For the same binder, the pKd [19, 31] was “below the threshold”, the pKd [20, 31] was “below the threshold” and the pKd [21, 31] was “below the threshold”. The pKd [22, 31] was “below the threshold”, the pKd [23, 31] was 3.83 and the pKd [24, 31] was “below the threshold”. For the same binder, the pKd [25, 31] was “below the threshold”, the pKd [26, 31] was “below the threshold” and the pKd [27, 31] was 3.51. The pKd [28, 31] was 4.3 and the pKd [29, 31] was “below the threshold”.

For DAAHHDESNC [FMNL3, Q8IVF7], the pKd [1, 30] was “below the threshold”, the pKd [2, 30] was “below the threshold” and the pKd [3, 30] was “below the threshold”. For the same binder, the pKd [4, 30] was “below the threshold”, the pKd [5, 30] was “below the threshold” and the pKd [6, 30] was “below the threshold”. The pKd [7, 30] was “below the threshold”, the pKd [8, 30] was “below the threshold” and the pKd [9, 30] was “below the threshold”. The pKd [10, 30] was “below the threshold”, the pKd [11, 30] was “below the threshold” and the pKd [12, 30] was “below the threshold”. The pKd [13, 30] was “below the threshold”, the pKd [14, 30] was “below the threshold” and the pKd [15, 30] was “below the threshold”. The pKd [16, 30] was “below the threshold”, the pKd [17, 30] was “below the threshold” and the pKd [18, 30] was “below the threshold”. For the same binder, the pKd [19, 30] was “below the threshold”, the pKd [20, 30] was “below the threshold” and the pKd [21, 30] was “below the threshold”. For the same binder, the pKd [22, 30] was “below the threshold”, the pKd [23, 30] was “below the threshold” and the pKd [24, 30] was “below the threshold”. For the same binder, the pKd [25, 30] was “below the threshold”, the pKd [26, 30] was “below the threshold” and the pKd [27, 30] was “below the threshold”. For the same binder, the pKd [28, 30] was “below the threshold” and the pKd [29, 30] was 3.99.
